Assay results: patent US20230183349A1

Target: PD1 aglycosylated at Asn58 (human) (UniProt Q15116)
Test: SPR Biacore T200, antibody captured by anti-human IgG, PD1-ECD as analyte, 25 °C, 1:1 Langmuir

Kd: 80.2 nM
koff: 0.027 s⁻¹
kon: 336000 M⁻¹ s⁻¹
B1: PD1-0103-0312 (antibody, V domains shown)
VH: EVQLLESGGGLVQPGGSLRLSCAASGFSFSSYTMSWVRQAPGKGLEWVATISGGGRDIYYPDSVKGRFTISRDNSKNTLYLQMNSLRAEDTAVYYCVLLTGRVYFALDSWGQGTLVTVSS
VL: DIVMTQSPDSLAVSLGERATINCKASESVDTSDNSFIHWYQQKPGQSPKLLIYRSSTLESGVPDRFSGSGSGTDFTLTISSLQAEDVAVYYCQQNYDVPWTFGQGTKVEIK
